# Ends that are not written are not given here.
# Legend:
# [1] = molecular target: T1, Snu17p (residues 1–113) (Saccharomyces cerevisiae, UniProt P40565); test: NMR titration (1H,15N correlation spectra) of 15N-labeled Snu17p (residues 1–113) with Bud13p peptides; assay type: binding; conditions: 298 K, 20 mM sodium phosphate, pH 6.3, 25 mM NaCl
# T1 construct: The concentration of Snu17p (residues 1–113) in the cell (1440 μl) varied between 30 and 70 μM; His6 (N, cleaved yes); GST (N, cleaved yes); made in house; host or cells: Escherichia coli BL21(DE3) pLysS
# T1 sequence (P40565 1-113): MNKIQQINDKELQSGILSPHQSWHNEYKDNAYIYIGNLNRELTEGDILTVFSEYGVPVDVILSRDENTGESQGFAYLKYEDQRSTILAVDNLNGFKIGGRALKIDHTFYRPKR
# Experimental: (§1) Recombinant proteins were purified by sonicating the harvested cell pellet in 25 ml of lysis buffer (20 mM Tris, pH 7.5, 300 mM NaCl, 10 mM imidazole, 1 mM DTT, and 0.02% NaN3), also including protease inhibitors, RNase, lysozyme, and 0.2% IGEPAL. After high speed centrifugation (20,000 × g, 30 min) and filtering, each supernatant was applied to Ni-NTA-agarose resin (Qiagen). Several rounds of washing were performed with: lysis buffer including 0.2% IGEPAL, lysis buffer, lysis buffer with high salt concentration (1 M NaCl), and lysis buffer with high imidazole concentration (30 mM imidazole). Finally, each protein was eluted by applying 10 ml of a buffer containing 20 mM Tris, pH 7.5, 300 mM NaCl, 330 mM imidazole, 1 mM DTT, and 0.02% NaN3. Tobacco etch virus protease was added to each sample and incubated overnight at 4 °C. To remove the cleaved GST tag each sample was passed over a second Ni-NTA column. A second purification step included size exclusion chromatography (HiLoad, Superdex 75 16/60, GE Healthcare). In this step, proteins were buffer exchanged into the NMR buffer (20 mM sodium phosphate, pH 6.3, 25 mM NaCl, and 2 mM fresh DTT or Tris(2-carboxyethyl)phosphine, 0.02% NaN3). Stoichiometric hybrid-labeled samples were prepared by mixing excess Bud13p with Snu17p and performing another step of size exclusion chromatography (HiLoad, Superdex 75 16/60, GE Healthcare). Two shorter peptides of Bud13p (residues 221–242 or residues 225–238) were purchased from Peptide Specialty Laboratories (Heidelberg, Germany), and extensively dialyzed before binding experiments.
# NMR spectra were recorded at 298 K on an AVIII800 Bruker NMR spectrometer equipped with a cryogenic triple resonance gradient probe. Spectra were processed using NMRPipe ([21]). Protein backbone and side chain assignments were obtained from standard triple resonance experiments ([22]). NOE distance restraints were obtained from ^15N- and ^13C-edited three-dimensional NOESY spectra (mixing time 70 ms) where only Snu17p or Bud13p proteins were labeled. Intermolecular NOE restraints were derived from three-dimensional ^15N,^13C-filtered, ^13C-edited NOESY spectra (mixing time 70 ms) ([22], [23]). Stereospecific assignments of pro-chiral methyl groups of valine and leucine were obtained using 10% ^13C-labeled protein samples ([24]).
# To characterize the unexpected molecular features of the Snu17p-Bud13p interaction we proceeded with biophysical and structural characterization of the binary complex (Fig. 3). […] We tested binding to a series of Bud13p fragments to identify the minimum binding region in Bud13p (Fig. 3, a and b). NMR titrations confirmed binding to a Bud13p peptide encompassing residues 201–266 as has been shown previously ([20]).
# [2] = test system: Snu17p (residues 25–113); test: NMR chemical shift perturbation with shorter Snu17p protein (residues 25–113); assay type: binding, Saccharomyces cerevisiae; conditions: shorter Snu17p protein (residues 25–113) compared with residues 1–113; data not shown
# Experimental: as §1, with “Stoichiometric hybrid-labeled samples were prepared by mixing excess Bud13p with Snu17p and performing another step of size exclusion chromatography (HiLoad, Superdex 75 16/60, GE Healthcare). Two shorter peptides of Bud13p (residues 221–242 or residues 225–238) were purchased from Peptide Specialty Laboratories (Heidelberg, Germany), and extensively dialyzed before binding experiments.” left out
# (§2) NMR spectra were recorded at 298 K on an AVIII800 Bruker NMR spectrometer equipped with a cryogenic triple resonance gradient probe. […]
# [3] = test system: Snu17p; test: NMR of 15N-labeled Bud13p in complex with unlabeled Snu17p; assay type: binding, Saccharomyces cerevisiae; conditions: 15N-labeled Bud13p (residues 222–256), 298 K
# Experimental: as §1, with “Stoichiometric hybrid-labeled samples were prepared by mixing excess Bud13p with Snu17p and performing another step of size exclusion chromatography (HiLoad, Superdex 75 16/60, GE Healthcare). Two shorter peptides of Bud13p (residues 221–242 or residues 225–238) were purchased from Peptide Specialty Laboratories (Heidelberg, Germany), and extensively dialyzed before binding experiments.” left out
# as §2
# [4] = Precipitation / solubility of the sample on addition of Bud13p peptide to 15N-labeled Snu17p; assay type: physicochemical; conditions: addition to recombinant 15N-labeled Snu17p, NMR titration
# Experimental: as §1, with “Two shorter peptides of Bud13p (residues 221–242 or residues 225–238) were purchased from Peptide Specialty Laboratories (Heidelberg, Germany), and extensively dialyzed before binding experiments.” left out
# [5] = molecular target: T1, Snu17p (residues 1–113); test: Isothermal titration calorimetry (ITC) of Bud13p ligands binding to Snu17p; conditions: 25 °C, NMR buffer pH 6.3
# Experimental: as §1, with “Two shorter peptides of Bud13p (residues 221–242 or residues 225–238) were purchased from Peptide Specialty Laboratories (Heidelberg, Germany), and extensively dialyzed before binding experiments.” left out
Substance,NMR chemical shift perturbations (CSPs) of Snu17p [1],NMR CSPs induced by Bud13p binding [2],chemical shift changes in Bud13p spectra on binding to Snu17p [3],precipitation / solubility of the sample [4],binding affinity (in words) [5]
ENRFAIMPGSRWDGVHRSNGFE [Bud13p^221-242],affected the same Snu17p residues but to a lesser extent compared with the longer ones,,,,
"Bud13p^222-256: Bud13p residues 222–256, recombinant from E. coli; optimal Bud13p peptide, minimum interacting region","large chemical shift changes, induced by Bud13p binding, map on the two helices plus adjacent loop regions of the Snu17p RRM-fold",Virtually identical NMR CSPs,extensive chemical shift changes in Bud13p spectra,proteins remained in solution,
"Bud13p^225-238: Bud13p residues 225–238, purchased from Peptide Specialty Laboratories (Heidelberg) (AIMPGSRWDGVHRS)",hardly induced any NMR spectral changes for Snu17p,,,,binds very weakly
"Bud13p^201-266: Bud13p residues 201–266, recombinant from E. coli, GST tag cleaved",extensive chemical shift perturbations (CSPs),,,led to precipitation of the sample,

# From paper PMC4192513, “A Novel Protein-Protein Interaction in the RES (REtention and Splicing) Complex” (The Journal of Biological Chemistry, 2014)
